For the assay, the target named is α-conotoxin ImII (Conus imperialis). Briefly: cryo-EM structure.

In the case of α-conotoxin ImII (peptide), the stoichiometry N (as a rule, a count of units in the complex or per binding partner) was found to be 2.
